Patent US20230159612A1 (published 2023)
Values belong to the binder of their own block, whether it stands above or below them.

How the values were obtained:
[1] = molecular target: T1, ASTN1 peptide on HLA-A*02:01 (human); assay: cytokine release
T1 peptide: KLYGLDWAEL

[2] = molecular target: T2, MAGE-A4 peptide on HLA-A*02:01 (human); assay: multimer staining
T2 peptide: GVYDGREHTV

binding result [1]: no recognition
binding result [2]: recognises
B1: TCR-3 (TCR, V domains shown)
Valpha: GENVEQHPSTLSVQEGDSAVIKCTYSDSASNYFPWYKQELGKRPQLIIDIRSNVGEKKDQRIAVTLNKTAKHFSLHITETQPEDSAVYFCAASRGTGFQKLVFGTGTRLLVSP
Vbeta: DTAVSQTPKYLVTQMGNDKSIKCEQNLGHDTMYWYKQDSKKFLKIMFSYNNKELIINETVPNRFSPKSPDKAHLNLHINSLELGDSAVYFCASSQFWDGAGDEQYFGPGTRLTVT

binding result [1]: no recognition
B2: TCR-2 (TCR, V domains shown)
Valpha: AQKITQTQPGMFVQEKEAVTLDCTYDTSDPSYGLFWYKQPSSGEMIFLIYQGSYDQQNATEGRYSLNFQKARKSANLVISASQLGDSAMYFCAMSGGYTGGFKTIFGAGTRLFVKA
Vbeta: DSGVTQTPKHLITATGQRVTLRCSPRSGDLSVYWYQQSLDQGLQFLIQYYNGEERAKGNILERFSAQQFPDLHSELNLSSLELGDSALYFCASSGGDGDEQFFGPGTRLTVL

binding result [1]: no recognition
binding result [2]: recognises
B3: TCR-1 (TCR, V domains shown)
Valpha: AQKITQTQPGMFVQEKEAVTLDCTYDTSDQSYGLFWYKQPSSGEMIFLIYQGSYDEQNATEGRYSLNFQKARKSANLVISASQLGDSAMYFCAMSGDSAGNMLTFGGGTRLMVKP
Vbeta: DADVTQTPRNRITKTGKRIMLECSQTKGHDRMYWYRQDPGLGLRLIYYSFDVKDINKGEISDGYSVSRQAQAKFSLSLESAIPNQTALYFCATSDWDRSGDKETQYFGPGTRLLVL
